Experiments:
P64K-VEGFKDR- (human) = P64K-VEGFKDR- (human) (UniProt P15692); assay: ELISA; antigen coated 1 µg/ml; scFv 10 µg/mL; 9E10-peroxidase
[1] = biological target: T1, isoform 165 of human VEGF-A (Peprotech) (human, UniProt P15692-4 27-191); assay: SPR, BIAcore-X; VEGF 165 coupled to CM5 chip; scFv injected; Langmuir 1:1
T1 construct: also called human VEGF165; VEGF 165

human GST-VEGF [2] = biological target: T2, human GST-VEGF (human, UniProt P15692-9 27-147); assay: competition ELISA on coated GST-VEGF; soluble scFv 2H1 titrated; competitor phage scFv L2
T2 construct: also called GST-VEGF humano; not shown: GST fusion partner
T2 sequence (looked up): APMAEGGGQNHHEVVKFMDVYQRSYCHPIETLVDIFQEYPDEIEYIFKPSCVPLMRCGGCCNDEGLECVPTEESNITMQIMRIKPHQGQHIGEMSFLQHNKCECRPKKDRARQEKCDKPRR

human GST-VEGF [3] = biological target: T2, human GST-VEGF; assay: competition ELISA on coated GST-VEGF; soluble scFv 2H1 titrated; competitor phage scFv L3
human GST-VEGF [4] = biological target: T2, human GST-VEGF; assay: competition ELISA on coated GST-VEGF; soluble scFv 2H1 titrated; competitor phage scFv 2A7
human GST-VEGF [5] = biological target: T2, human GST-VEGF; assay: competition ELISA on coated GST-VEGF; soluble scFv 2H1 titrated; competitor phage scFv 3D4
human GST-VEGF [6] = biological target: T2, human GST-VEGF; assay: competition ELISA on coated GST-VEGF; soluble scFv 2H1 titrated; competitor phage scFv 3E2
human GST-VEGF [7] = biological target: T2, human GST-VEGF; assay: competition ELISA on coated GST-VEGF; soluble scFv 2H1 titrated; competitor phage scFv 3H2
human GST-VEGF [8] = biological target: T2, human GST-VEGF; assay: competition ELISA on coated GST-VEGF; soluble scFv 2H1 titrated; competitor phage scFv 4D8
human GST-VEGF [9] = biological target: T2, human GST-VEGF; assay: competition ELISA on coated GST-VEGF; soluble scFv 2H1 titrated; competitor phage scFv 4F2
human GST-VEGF [10] = biological target: T2, human GST-VEGF; assay: competition ELISA on coated GST-VEGF; soluble scFv 2H1 titrated; competitor phage scFv 1B1
human GST-VEGF [11] = biological target: T2, human GST-VEGF; assay: competition ELISA on coated GST-VEGF; soluble scFv 2H1 titrated; competitor phage scFv 1C9
human GST-VEGF [12] = biological target: T2, human GST-VEGF; assay: competition ELISA on coated GST-VEGF; soluble scFv 2H1 titrated; competitor phage scFv 1E9
human GST-VEGF [13] = biological target: T2, human GST-VEGF; assay: competition ELISA on coated GST-VEGF; soluble scFv 2H1 titrated; competitor phage scFv 1H3
human GST-VEGF [14] = biological target: T2, human GST-VEGF; assay: competition ELISA on coated GST-VEGF; soluble scFv 2H1 titrated; competitor phage scFv 2F6
human GST-VEGF [15] = biological target: T2, human GST-VEGF; assay: competition ELISA on coated GST-VEGF; soluble scFv 2H1 titrated; competitor phage scFv 2H8
human GST-VEGF [16] = biological target: T2, human GST-VEGF; assay: competition ELISA on coated GST-VEGF; soluble scFv 2H1 titrated; competitor phage scFv 1H2
human GST-VEGF [17] = biological target: T2, human GST-VEGF; assay: competition ELISA on coated GST-VEGF; soluble scFv 2H1 titrated; competitor phage scFv 2F6; remark: listed apart in the source
human GST-VEGF [18] = biological target: T2, human GST-VEGF; assay: competition ELISA on coated GST-VEGF; soluble scFv 2H1 titrated; competitor phage scFv 3E3
human GST-VEGF [19] = biological target: T2, human GST-VEGF; assay: competition ELISA on coated GST-VEGF; soluble scFv 2H1 titrated; competitor phage scFv 3E10
human GST-VEGF [20] = biological target: T2, human GST-VEGF; assay: competition ELISA on coated GST-VEGF; soluble scFv 2H1 titrated; competitor phage scFv 3E12
human GST-VEGF [21] = biological target: T2, human GST-VEGF; assay: competition ELISA on coated GST-VEGF; soluble scFv 2H1 titrated; competitor phage scFv 4E11
human GST-VEGF [22] = biological target: T2, human GST-VEGF; assay: competition ELISA on coated GST-VEGF; soluble scFv 2H1 titrated; competitor phage scFv 1D12
human GST-VEGF [23] = biological target: T2, human GST-VEGF; assay: competition ELISA on coated GST-VEGF; soluble scFv 2H1 titrated; competitor phage scFv 2A10
human GST-VEGF [24] = biological target: T2, human GST-VEGF; assay: competition ELISA on coated GST-VEGF; soluble scFv 2H1 titrated; competitor phage scFv L3H5
human GST-VEGF [25] = biological target: T2, human GST-VEGF; assay: competition ELISA on coated GST-VEGF; soluble scFv 2H1 titrated; competitor phage scFv 2H1 original
human GST-VEGF [26] = biological target: T2, human GST-VEGF; assay: as above; remark: listed apart in the source

T1 sequence (P15692 other isoform, or with tags, fused parts or gaps limits assumed): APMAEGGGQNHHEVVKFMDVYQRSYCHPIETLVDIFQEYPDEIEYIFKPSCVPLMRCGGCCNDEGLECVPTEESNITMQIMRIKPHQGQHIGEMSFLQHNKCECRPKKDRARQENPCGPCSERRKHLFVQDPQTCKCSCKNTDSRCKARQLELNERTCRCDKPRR

B1: soluble scFv 2H1 antibody fragment (scFv, from another filing)
scFv: QQVQLVQSGAEVKKPGESLKISCKGSGYSFTSYWIGWVRQMPGKGLEWMGIIYPGDSDTRYSPSFQGQVTISADKSISTAYLQWSSLKASDTAMYYCARLVVRDTEIWGQGTMVTVSSAPQAKSSGSGSESKVDQAVVTQEPSLTVSPGGTVTLTCASSIGAVTSGNYPNWFQQRPGQPPRALIYSTSNKHSWTPARFSGSLLGGKAALTLSGAQPEDEAEYYCLLSYSGARPVFGGGTKLTVLGAAAGSEQKLISEEDLNSHHHHHH
absorbance at 492 nm (P64K-VEGFKDR- (human)): 0.764
Kd [1]: 457 nM
IC50 (human GST-VEGF [2]): 126 µg/mL
IC50 (human GST-VEGF [3]): 358 µg/mL
IC50 (human GST-VEGF [4]): 15.8 µg/mL
IC50 (human GST-VEGF [5]): 16.3 µg/mL
IC50 (human GST-VEGF [6]): 15.3 µg/mL
IC50 (human GST-VEGF [7]): 19.6 µg/mL
IC50 (human GST-VEGF [8]): 32 µg/mL
IC50 (human GST-VEGF [9]): 4.98 µg/mL
IC50 (human GST-VEGF [10]): 151 µg/mL
IC50 (human GST-VEGF [11]): 38.3 µg/mL
IC50 (human GST-VEGF [12]): 46.2 µg/mL
IC50 (human GST-VEGF [13]): 117 µg/mL
IC50 (human GST-VEGF [14]): 119 µg/mL
IC50 (human GST-VEGF [15]): 46.6 µg/mL
IC50 (human GST-VEGF [16]): 120 µg/mL
IC50 (human GST-VEGF [17]): 115 µg/mL
IC50 (human GST-VEGF [18]): 34.6 µg/mL
IC50 (human GST-VEGF [19]): 15.1 µg/mL
IC50 (human GST-VEGF [20]): 18.3 µg/mL
IC50 (human GST-VEGF [21]): 5.28 µg/mL
IC50 (human GST-VEGF [22]): 58.9 µg/mL
IC50 (human GST-VEGF [23]): 35.8 µg/mL
IC50 (human GST-VEGF [24]): 940 µg/mL
IC50 (human GST-VEGF [25]): 5.08 µg/mL
IC50 (human GST-VEGF [26]): 4.89 µg/mL

Source: US20140086829A1 (BIOREC S A, published 2014)
